Fewer inactive variants are shown than the library holds.
Columns and labels:
biotinyl-Leu-oxazolone = assay: self-aminoacylation, catalytic enhancement (BLO) (fold over background); higher = more active; k-Seq, kA / k0A0; sequences stand for … in GGGAAUGGAUCCACAUCUACGAAUUC…UUCACUGCAGACUUGACGAAGCUG
How it was run: (§1)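 Mutagenized RNA pools (0.43 μM; 21-nt variable region) were treated with 2–1250 μM of each biotinyl-aminoacyl-oxazolone. Conditions were 50 μL HEPES/NaCl/KCl/MgCl2/CaCl2 buffer, 5% acetonitrile, pH 6.9–7.0, room temperature, 90 minutes. Catalytic enhancement, the median kA relative to the uncatalyzed rate, was derived from streptavidin capture, qPCR and Illumina sequencing.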

biotinyl-Ile-oxazolone = assay: self-aminoacylation, catalytic enhancement (BIO) (fold over background); higher = more active; k-Seq, kA / k0A0; sequences stand for … in GGGAAUGGAUCCACAUCUACGAAUUC…UUCACUGCAGACUUGACGAAGCUG
How it was run: as §1

biotinyl-Val-oxazolone = assay: self-aminoacylation, catalytic enhancement (BVO) (fold over background); higher = more active; k-Seq, kA / k0A0; sequences stand for … in GGGAAUGGAUCCACAUCUACGAAUUC…UUCACUGCAGACUUGACGAAGCUG
How it was run: as §1

biotinyl-Met-oxazolone = assay: self-aminoacylation, catalytic enhancement (BMO) (fold over background); higher = more active; k-Seq, kA / k0A0; sequences stand for … in GGGAAUGGAUCCACAUCUACGAAUUC…UUCACUGCAGACUUGACGAAGCUG
How it was run: as §1

biotinyl-Phe-oxazolone = assay: self-aminoacylation, catalytic enhancement (BFO) (fold over background); higher = more active; k-Seq, kA / k0A0; sequences stand for … in GGGAAUGGAUCCACAUCUACGAAUUC…UUCACUGCAGACUUGACGAAGCUG
How it was run: as §1

biotinyl-Trp-oxazolone = assay: self-aminoacylation, catalytic enhancement (BWO) (fold over background); higher = more active; k-Seq, kA / k0A0; sequences stand for … in GGGAAUGGAUCCACAUCUACGAAUUC…UUCACUGCAGACUUGACGAAGCUG
How it was run: as §1

Sequence	self-aminoacylation (biotinyl-Leu-oxazolone)	self-aminoacylation (biotinyl-Ile-oxazolone)	self-aminoacylation (biotinyl-Val-oxazolone)	self-aminoacylation (biotinyl-Met-oxazolone)	self-aminoacylation (biotinyl-Phe-oxazolone)	self-aminoacylation (biotinyl-Trp-oxazolone)
AGUCACAUAGGUCAUCGGGUG [Fam2.2 aminoacylation ribozyme variant]	10.2	7.04	6.38	8.54	63.6	9.51
AUUCUCCUCGGUCAUCGGGUG [Fam2.2 aminoacylation ribozyme variant]	15.5	8.05	7.28	11.3	108	11.6
AUUACCCUAGUCAUCCAGUGA [Fam2.1 aminoacylation ribozyme variant]	2.86	1.91	1.94	2.29	3.4	3.28
AUUACCCUGGUCAGAGAGUGA [Fam2.1 aminoacylation ribozyme variant]	6.71	3.18	3.41	7.04	19.9	8.25
AAAUUUGCUAAUAGUCGCACG [Fam3.1 aminoacylation ribozyme variant]	1.42	1.58	1.72	1.38	1.47	1.81
AUCCACCUAGGCCAUCGGGUG [Fam2.2 aminoacylation ribozyme variant]	5.49	3.55	4.12	3.46	27.4	6.22
CCACACUUCAAGCAUUCGGCC [Fam1B.1 aminoacylation ribozyme variant]	1.63	1.84	1.99	1.25	0.749	1.69
AUUACACUGGUCAUCGGGUGA [Fam2.1 aminoacylation ribozyme variant]	9.65	5.02	5.51	9.88	59.4	9.23
AAGUUUGGUAAUAGUCGCAAC [Fam3.1 aminoacylation ribozyme variant]	1.16	1.48	1.47	1.19	2.86	1.84
AUACACUUCAAGCAAUCGGUC [Fam1B.1 aminoacylation ribozyme variant]	0.979	1.05	0.96	0.804	9.74	5.86
CUUACCCUGGUGAUCGAGUGA [Fam2.1 aminoacylation ribozyme variant]	4.36	2.65	2.81	4.51	14.5	5.52
AAGUUUUCUAAUAGUCGGAAG [Fam3.1 aminoacylation ribozyme variant]	1.14	1.44	1.31	1.25	1.99	1.21
UUUCACCUACGUCAUCGGGUG [Fam2.2 aminoacylation ribozyme variant]	5.75	2.88	3.3	4.85	31.6	4.58
CCCCACUUCAAGCAAUCGGGC [Fam1B.1 aminoacylation ribozyme variant]	2.43	2.37	2.92	3.15	4.2	5.69
AUUCGCCUAGGUCUUCGGGUG [Fam2.2 aminoacylation ribozyme variant]	8.57	5.33	5.82	7.49	55.9	9
AUUACCCUGGUCAUGGUGUGA [Fam2.1 aminoacylation ribozyme variant]	1.84	1.27	1.18	1.64	4.16	2.24
CCACAAUGCAAGCAAUCGGUC [Fam1B.1 aminoacylation ribozyme variant]	1.01	1.48	1.41	1.22	1.02	0.93
CUACUUCAAACAAUCGGCGUG [Fam1A.1 aminoacylation ribozyme variant]	6.1	3.35	3.12	4.44	6.45	5.22
AUUACCUUGGUCAUCGAGUUA [Fam2.1 aminoacylation ribozyme variant]	0.814	1.18	1.03	1.19	0.913	0.524
AUAACCCUGGUCUUCGAGUGA [Fam2.1 aminoacylation ribozyme variant]	5.23	2.9	2.71	5.08	17.7	6.89
AUUACCCCGGUCAUCGAGAGA [Fam2.1 aminoacylation ribozyme variant]	0.708	0.935	0.651	0.8	1.03	1.07
AUUACCCAGGUCAUCGAGGGA [Fam2.1 aminoacylation ribozyme variant]	1.48	1.36	1.37	1.38	1.52	1.16
AUUACCAUGGUCAUUGAGUGA [Fam2.1 aminoacylation ribozyme variant]	12.1	5.76	5.51	11.8	63.6	13.8
AUAACGCUGGUCAUCGAGUGA [Fam2.1 aminoacylation ribozyme variant]	4.06	3.06	2.76	4.6	15	5.24
AUGAUUGCUAAUAGUCGCAAG [Fam3.1 aminoacylation ribozyme variant]	1.53	1.34	1.24	1.67	2.06	1.61

Reference: the supplement of paper PMC9233669
